The source of these data is article PMC11455619.

The test addresses septin-7 (commercially purified, LSBio) (UniProt Q16181). The test can be described thus: MST.

Chain of septin-7 (commercially purified, LSBio) (Q16181 whole entry): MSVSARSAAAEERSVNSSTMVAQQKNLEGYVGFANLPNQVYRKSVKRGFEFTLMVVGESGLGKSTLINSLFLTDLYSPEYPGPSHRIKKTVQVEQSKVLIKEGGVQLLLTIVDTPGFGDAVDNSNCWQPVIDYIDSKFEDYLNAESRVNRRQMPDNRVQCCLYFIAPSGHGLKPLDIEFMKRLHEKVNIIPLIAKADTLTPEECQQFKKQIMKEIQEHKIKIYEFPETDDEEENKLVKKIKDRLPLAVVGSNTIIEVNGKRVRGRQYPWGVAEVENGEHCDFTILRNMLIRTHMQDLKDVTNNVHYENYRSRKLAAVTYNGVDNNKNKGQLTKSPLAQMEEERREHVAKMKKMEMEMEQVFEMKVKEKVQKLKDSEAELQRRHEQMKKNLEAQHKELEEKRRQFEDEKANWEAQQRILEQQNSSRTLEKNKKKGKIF

“SOD1 trimer, HG trimer-stabilising mutant (printed as H46G-G108H and as H46Q-G108H) (from UniProt P00441 1-154) (enzyme)” displayed a Kd of 7.48 µM. This lies in the single-digit micromolar range.
